Laboratory results: paper PMC11577821

Experiments:
purified protein [1] = substrate: O=C(CCc1ccc(O)cc1)c1c(O)cc(O)cc1O; assay: purified protein; settings: UDP-Glc as sugar donor; C-glucosylation
purified protein [2] = substrate: O=C1CC(O)(c2ccc(O)cc2)Oc2cc(O)cc(O)c21; assay: purified protein; settings: UDP-Glc as sugar donor; C-glucosylation

B1: UGT708S6 (Dendrobium catenatum) (protein)
chain: MSSGDTNLPRVLLLPSSGMGHLVPFVRLASALSERCISVSLLAVRPTISAAESLLLSSLPSSLLLDFPIKPLDPSLFPPSSDPFFLQMEALRRSADLLPSFISTCSPPVSSLIIDISIASSFLPVAAAAKIPCFVLFTSSASMLALCSVFAFLSTPTAGADVNIAGGVLKIPTSSLPPPLRDPNHLFTTQFVENGRALAQANGILVNTFSALEPEVLVALNSGAVLPGLPPVIAIGPLPPVKKQPSLPSPALRWLDEQQEKSVMYVSFGSRTAMSKEQIRALGAGLENSGCRFFWVVKSAKVDREEVMEIEELLGEEYAKRVEERGLVVKEWVEQEVVLSHRAVAGFMSHCGWNSVTEAAAAGVRILAWPRMGDQRVNAAVVARSGLGIWPEKWAWEAEERVVAAEEIAVKVREMMRDERLAETAAQVQAEATAAVQEGGSLDQSCGYLLKKL
Km (purified protein [1]): 545.831 µM | Vmax (purified protein [1]): 9.48 µM/min | kcat (purified protein [1]): 0.563 s⁻¹ | kcat/Km (purified protein [1]): 1030 M⁻¹ s⁻¹ | Km (purified protein [2]): 276.900 µM | Vmax (purified protein [2]): 7.68 µM/min | kcat (purified protein [2]): 0.907 s⁻¹ | kcat/Km (purified protein [2]): 3280 M⁻¹ s⁻¹
